Source: article PMC8224240 (Molecular cell, 2020)

Molecular target: T1, human Smc6 with Strep-tag II (StreptagII-Smc6) (human, UniProt Q96SB8 1-1091)
T1 sequence (looked up): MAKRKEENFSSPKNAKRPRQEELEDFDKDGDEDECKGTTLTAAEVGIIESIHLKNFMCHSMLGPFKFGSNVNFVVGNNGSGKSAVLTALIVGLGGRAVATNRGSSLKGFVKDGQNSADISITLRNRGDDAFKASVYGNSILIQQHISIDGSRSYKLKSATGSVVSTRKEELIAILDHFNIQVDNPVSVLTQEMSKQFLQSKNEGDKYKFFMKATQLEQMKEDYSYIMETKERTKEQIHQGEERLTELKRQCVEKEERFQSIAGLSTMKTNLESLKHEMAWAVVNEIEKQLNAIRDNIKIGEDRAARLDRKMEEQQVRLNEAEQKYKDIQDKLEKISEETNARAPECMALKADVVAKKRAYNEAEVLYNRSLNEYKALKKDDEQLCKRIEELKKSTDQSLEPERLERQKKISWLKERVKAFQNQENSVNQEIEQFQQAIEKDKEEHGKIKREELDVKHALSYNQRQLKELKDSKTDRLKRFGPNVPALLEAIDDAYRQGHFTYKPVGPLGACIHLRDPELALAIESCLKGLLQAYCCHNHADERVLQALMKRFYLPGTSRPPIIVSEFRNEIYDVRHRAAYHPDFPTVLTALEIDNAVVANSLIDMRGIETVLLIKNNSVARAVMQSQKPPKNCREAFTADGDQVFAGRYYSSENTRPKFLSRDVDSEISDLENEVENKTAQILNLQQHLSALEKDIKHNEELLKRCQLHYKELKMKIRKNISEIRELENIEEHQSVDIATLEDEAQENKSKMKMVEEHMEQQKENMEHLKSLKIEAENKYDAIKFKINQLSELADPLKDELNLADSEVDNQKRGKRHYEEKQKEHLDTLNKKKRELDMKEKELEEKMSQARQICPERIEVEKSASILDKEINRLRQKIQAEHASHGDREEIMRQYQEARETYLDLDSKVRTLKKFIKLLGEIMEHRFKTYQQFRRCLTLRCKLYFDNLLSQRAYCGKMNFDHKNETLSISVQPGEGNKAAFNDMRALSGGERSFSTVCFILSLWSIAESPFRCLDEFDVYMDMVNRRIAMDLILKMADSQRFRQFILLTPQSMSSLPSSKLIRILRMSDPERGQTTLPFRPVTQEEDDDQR
Experiment: tandem affinity co-purification

B1: human Smc5 with poly-histidine tag (His-Smc5), subunit of the Smc5/6 dimer (natural protein, UniProt Q8IY18 1-1101, looked up)
chain: MATPSKKTSTPSPQPSKRALPRDPSSEVPSKRKNSAPQLPLLQSSGPFVEGSIVRISMENFLTYDICEVSPGPHLNMIVGANGTGKSSIVCAICLGLAGKPAFMGRADKVGFFVKRGCSRGMVEIELFRASGNLVITREIDVAKNQSFWFINKKSTTQKIVEEKVAALNIQVGNLCQFLPQDKVGEFAKLSKIELLEATEKSIGPPEMHKYHCELKNLREKEKQLETSCKEKTEYLQKMVQRNERYKQDVERFYERKRHLDLIEMLEAKRPWVEYENVRQEYEEVKLVRDRVKEEVRKLKEGQIPVTCRIEEMENERHNLEARIKEKATDIKEASQKCKQKQDVIERKDKHIEELQQALIVKQNEELDRQRRIGNTRKMIEDLQNELKTTENCENLQPQIDAITNDLRRIQDEKALCEGEIIDKRRERETLEKEKKSVDDHIVRFDNLMNQKEDKLRQRFRDTYDAVLWLRNNRDKFKQRVCEPIMLTINMKDNKNAKYIENHIPSNDLRAFVFESQEDMEVFLKEVRDNKKLRVNAVIAPKSSYADKAPSRSLNELKQYGFFSYLRELFDAPDPVMSYLCCQYHIHEVPVGTEKTRERIERVIQETRLKQIYTAEEKYVVKTSFYSNKVISSNTSLKVAQFLTVTVDLEQRRHLEEQLKEIHRKLQAVDSGLIALRETSKHLEHKDNELRQKKKELLERKTKKRQLEQKISSKLGSLKLMEQDTCNLEEEERKASTKIKEINVQKAKLVTELTNLIKICTSLHIQKVDLILQNTTVISEKNKLESDYMAASSQLRLTEQHFIELDENRQRLLQKCKELMKRARQVCNLGAEQTLPQEYQTQVPTIPNGHNSSLPMVFQDLPNTLDEIDALLTEERSRASCFTGLNPTIVQEYTKREEEIEQLTEELKGKKVELDQYRENISQVKERWLNPLKELVEKINEKFSNFFSSMQCAGEVDLHTENEEDYDKYGIRIRVKFRSSTQLHELTPHHQSGGERSVSTMLYLMALQELNRCPFRVVDEINQGMDPINERRVFEMVVNTACKENTSQYFFITPKLLQNLPYSEKMTVLFVYNGPHMLEPNTWNLKAFQRRRRRITFTQPS
- stoichiometry N: 1
